Assay [1] relates to GCC. The assay is classed as biochemical, human.
Assay [2] has as its target Cyan- and yellow-tagged GCC catalytic domains (human). The assay is described as follows: FRET or BRET; sensitized FRET in HEK 293 cells between Cyan-GCCcat and Yellow-GCCcat, co-expressed with pCDNA3 empty vector, HA-NHERF3, HA-NHERF4, HA-NHERF4 PDZ1 or HA-NHERF4 delPDZ1; STc (1 uM) stimulation. On the technique in general: BRET reads energy transfer from a luciferase to a nearby fluorophore.

Assay [3] has as its system CFTR-dependent fluid secretion, organoids. The note with it: cited from earlier work.
In assay [4] the test system is C-terminal 50 amino acids of GCC (GCCC50). Type of assay: binding.
For assay [5], the system named is C-terminal 50 amino acids of MRP4 (MRP4C50). Type of assay: binding.
For assay [6], the system named is MRP4C50 and GCCC50. The assay is classed as binding. As to conditions: 4 °C.
In assay [7] the test system is FLAG-GCC in HEK-293 cells. Type of assay: cell-based.
Assay [8] concerns GCC catalytic domains (Cyan-GCCcat and Yellow-GCCcat). Type of assay: cell-based.
The test system of assay [9] is CFTR-dependent fluid secretion, mouse enteroids. The assay is classed as cell-based.
Assay [10] addresses T1, GST-NHERF3 (human, UniProt Q5T2W1 1-519).
T1 construct: also called PDZK1; CAP70
T1 sequence (looked up): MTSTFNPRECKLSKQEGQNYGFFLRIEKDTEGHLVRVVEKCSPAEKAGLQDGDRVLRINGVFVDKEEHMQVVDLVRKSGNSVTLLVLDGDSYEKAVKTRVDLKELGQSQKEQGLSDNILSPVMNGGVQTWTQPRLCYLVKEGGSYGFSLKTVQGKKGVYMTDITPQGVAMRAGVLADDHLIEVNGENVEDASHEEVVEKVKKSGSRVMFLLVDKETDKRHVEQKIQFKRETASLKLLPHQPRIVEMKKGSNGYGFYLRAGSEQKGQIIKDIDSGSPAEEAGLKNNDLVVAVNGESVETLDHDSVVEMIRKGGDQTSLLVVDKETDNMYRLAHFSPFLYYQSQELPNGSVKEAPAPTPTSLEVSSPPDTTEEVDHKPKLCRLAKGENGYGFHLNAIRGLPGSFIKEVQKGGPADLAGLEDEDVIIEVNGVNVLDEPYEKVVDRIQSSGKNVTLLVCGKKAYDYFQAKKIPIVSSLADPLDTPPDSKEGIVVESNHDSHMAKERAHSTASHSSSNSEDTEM
The assay is described as follows: far-Western, overlay or dot blot; dot blot: GST-NHERF1-4 and GST on nitrocellulose, GCCC50 overlaid, probed with in-house anti-GCC rabbit polyclonal antibody; saturating NHERF, > 1.2 pmoles. The note with it: both partners purified.

Assay [11] deals with T2, GST-NHERF1 (human, UniProt O14745 1-358).
T2 construct: also called EBP50; GST-tagged NHERF1
T2 sequence (looked up): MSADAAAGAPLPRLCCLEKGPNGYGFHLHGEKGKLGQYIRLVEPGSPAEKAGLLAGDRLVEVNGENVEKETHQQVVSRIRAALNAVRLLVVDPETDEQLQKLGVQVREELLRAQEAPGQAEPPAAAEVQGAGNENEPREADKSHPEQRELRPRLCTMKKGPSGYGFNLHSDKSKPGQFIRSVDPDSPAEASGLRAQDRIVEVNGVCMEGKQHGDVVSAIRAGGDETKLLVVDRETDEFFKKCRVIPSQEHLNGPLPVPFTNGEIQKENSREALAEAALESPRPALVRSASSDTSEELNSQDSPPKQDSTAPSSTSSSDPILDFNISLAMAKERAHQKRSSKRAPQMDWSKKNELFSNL
Described as above. The note with it: both partners purified.

Assay [12] deals with T3, GST-NHERF2 (human, UniProt Q15599 1-337).
T3 construct: also called E3KARP; GST-tagged NHERF2
The assay is described as above. The note with it: both partners purified.

Assay [13] concerns the target T1, GST-NHERF3. The assay is described as follows: far-Western, overlay or dot blot; slot blot (macromolecular complex assay): GST-His-S-MRP4-C50 (0, 5 and 20 ug) and GST alone on nitrocellulose, 5 ug GST-NHERF3 overnight at 4 C, then 0.5 ug purified Flag-GCC-C50 at 4 C; detected with a GCC C-terminal specific antibody. As to conditions: both partners purified.
Assay [14] concerns the target HA-GCC (human, UniProt P25092 24-1073). Description: cell-based or functional assay.
Assay [15] deals with T4, GCC catalytic domain (GCCcat, amino acids 824-954), purified (human, UniProt P25092 824-954).
T4 construct: also called GCC catalytic subunit
The assay is described as follows: HRP-based binding assay on S-beads; 20 ug purified GCCcat immobilised on S-beads, 7.5 uM Biotin N4-195 overnight at 4 C, washed with PBS 0.2% Triton-X-100, streptavidin HRP with TMB, absorbance at 450 nm; control: S-beads without GCCcat. As to conditions: both partners purified.

Entries after “also recorded” stand apart in the source; their conditions may differ. Ends that are not written are not given here.

T4 sequence (P25092 824-954): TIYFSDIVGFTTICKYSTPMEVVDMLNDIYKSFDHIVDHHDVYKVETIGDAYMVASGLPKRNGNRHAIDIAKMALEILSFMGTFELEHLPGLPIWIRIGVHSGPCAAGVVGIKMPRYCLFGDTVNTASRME

In the case of “H-LERPRFCLL-OH [N4-110, peptide in NHERF4 PDZ1 domain homologous to GCC catalytic domain]”, the “GCC activity (cGMP) in the presence of single peptide” value in assay [1] was “did not affect GCC activity”. Take HA-NHERF4 PDZ1 (domain or fragment): the FRET efficiency of GCCcat oligomerization with this protein co-expressed in [2] came out at 0.21.

Turning to `C=C[C@@]1(C)CC(=O)[C@]2(O)[C@@]3(C)[C@@H](O)CCC(C)(C)[C@@H]3[C@H](O)[C@H](OC(C)=O)[C@@]2(C)O1` [Forskolin], in assay [3], the “Fluid secretion response (organoid swelling)” value is “highly robust fluid secretion response”. In the case of “Cyan- and yellow-tagged GCC catalytic domains (domain or fragment)”, the FRET efficiency of GCCcat oligomerization (control, empty vector) in [2] is 0.54. On to H-RHAHDVARAQL-OH [N4-195], for which the “GCC activity (cGMP) in the presence of single peptide” value in assay [1] is given as “did not affect GCC activity”. For the molecule “NHERF3: PDZ adaptor protein; GST-fusion protein or HA-tagged construct”, the “Binding order of NHERFs to GCC” value in assay [4] is listed as “highest binding affinity for GCC among the NHERF proteins; also recorded: NHERF3> NHERF1> NHERF2> NHERF4”. In assay [5], the “Binding order of NHERFs to MRP4” value is given as “NHERF3> NHERF2≥ NHERF1> NHERF4”. In addition, in assay [6], the “Macromolecular complex formation of GCC and MRP4 via NHERF3” value is reported as “GCC could exist in a macromolecular complex with MRP4 via NHERF3”. For the same molecule, the “Binding to GCC with increasing concentrations of STc” value in assay [7] is “not affected”. The “FRET efficiency of GCCcat oligomerization” value in assay [8] amounted to 0.51 ± 0.08.

For the molecule “H-PRCDRVLHHFLRAALLQEAR-OH [N4-scrambled, scrambled peptide with same amino acid composition as N4-110 and N4-195 combined]”, in assay [9], the “STc-stimulated secretion with scrambled peptide, high concentrations” value is “some non-specific inhibition was observed at high concentrations” and the “STc-stimulated secretion with scrambled peptide, lower concentrations” value was “did not reduce STc-stimulated secretion at lower concentrations”. Take AEFSDMIANSLQKRQAAGIRSQKPRRVASYKKGTLEYLQLNTTDKESTYF (domain or fragment, human, UniProt P25092 1024-1073, looked up) [C-terminal 50 amino acids of GCC (GCCC50)]: the binding result in assay [10], in assay [11] and in assay [12] was “binds” throughout. For AEFSDMIANSLQKRQAAGIRSQKPRRVASYKKGTLEYLQLNTTDKESTYF (domain or fragment, human, UniProt P25092 1024-1073, looked up, also called GCCC50) [Flag-GCC-C-terminal 50 aa], the binding result in assay [13] is given as “binds”.

B1: NHERF1: PDZ adaptor protein; purified as GST-fusion protein (protein)
chain: T2 sequence (looked up)
modifications: left off: GST, end not stated, kept
Turning to B1, in assay [4], the “Binding order of NHERFs to GCC” value is reported as “NHERF3> NHERF1> NHERF2> NHERF4”. Besides, the “Binding order of NHERFs to MRP4” value in assay [5] is listed as “NHERF3> NHERF2≥ NHERF1> NHERF4”.

B2: GST-NHERF4 (natural protein, human, UniProt Q86UT5 1-571, looked up)
chain: MVTPSPPGNHSLSLEAPRLHTASDLLGNHSLGLPLITALVGSRDRRGRVFSPVPVPLPTNPTTQHPTRQKLPSTLSGHRVCQAHGEPVLGLCPLLPLFCCPPHPPDPWSLERPRFCLLSKEEGKSFGFHLQQELGRAGHVVCRVDPGTSAQRQGLQEGDRILAVNNDVVEHEDYAVVVRRIRASSPRVLLTVLARHAHDVARAQLGEDAHLCPTLGPGVRPRLCHIVKDEGGFGFSVTHGNQGPFWLVLSTGGAAERAGVPPGARLLEVNGVSVEKFTHNQLTRKLWQSGQQVTLLVAGPEVEEQCRQLGLPLAAPLAEGWALPTKPRCLHLEKGPQGFGFLLREEKGLDGRPGQFLWEVDPGLPAKKAGMQAGDRLVAVAGESVEGLGHEETVSRIQGQGSCVSLTVVDPEADRFFSMVRLSPLLFLENTEAPASPRGSSSASLVETEDPSLEDTSVPSVPLGSRQCFLYPGPGGSYGFRLSCVASGPRLFISQVTPGGSAARAGLQVGDVILEVNGYPVGGQNDLERLQQLPEAEPPLCLKLAARSLRGLEAWIPPGAAEDWALASDLL
On to B2, for which the “inhibition of the cGMP formation of HA-GCC immunoprecipitated on HA beads by 200 nM purified GST-NHERF4, relative to the GST-only control” value in assay [14] came to 38%. Besides, the FRET efficiency of GCCcat oligomerization with this protein co-expressed in assay [2] is 0.17.

B3: NHERF2: PDZ adaptor protein; purified as GST-fusion protein (protein)
chain: MAAPEPLRPRLCRLVRGEQGYGFHLHGEKGRRGQFIRRVEPGSPAEAAALRAGDRLVEVNGVNVEGETHHQVVQRIKAVEGQTRLLVVDQETDEELRRRQLTCTEEMAQRGLPPAHDPWEPKPDWAHTGSHSSEAGKKDVSGPLRELRPRLCHLRKGPQGYGFNLHSDKSRPGQYIRSVDPGSPAARSGLRAQDRLIEVNGQNVEGLRHAEVVASIKAREDEARLLVVDPETDEHFKRLRVTPTEEHVEGPLPSPVTNGTSPAQLNGGSACSSRSDLPGSDKDTEDGSAWKQDPFQESGLHLSPTAAEAKEKARAMRVNKRAPQMDWNRKREIFSNF
modifications: left off: GST, end not stated, kept
Consider B3, for which the “Binding order of NHERFs to GCC” value in assay [4] is “NHERF3> NHERF1> NHERF2> NHERF4”. Moreover, the “Binding order of NHERFs to MRP4” value in assay [5] is “NHERF3> NHERF2≥ NHERF1> NHERF4”. RHAHDVARAQL (not fully specified (N-terminus); also: biotin label, position not given here, also called N4-Biotin) [Biotin-N4-195 peptide]: the binding result in [15] was “binds”.
